This note sets out measurements from US20140219992A1.

Assay [1] has as its target serum-derived protein (Zucker rat). Briefly: solid phase capture ELISA of Zucker rat skin perfusate, 60 minutes after perfusion, 10 mM Ca^2+. In general terms: In an ELISA, binding on a coated surface is turned into a signal by an enzyme label.
For assay [2] the target is unchanged. The assay can be described thus: solid phase capture ELISA of Zucker rat skin perfusate, 30 minutes after perfusion, 10 mM Ca^2+.
Assay [3] has the same target. Briefly: solid phase capture ELISA of Zucker rat skin perfusate, 30 minutes after perfusion, 1 mM Ca^2+.
Assay [4] has the same target. Briefly: solid phase capture ELISA of Zucker rat skin perfusate, 2 minutes after perfusion, 1 mM Ca^2+.
Assay [5] shares this target. Briefly: solid phase capture ELISA of Zucker rat skin perfusate, 2 minutes after perfusion, 10 mM Ca^2+.
The target is the same in assay [6]. Briefly: solid phase capture ELISA of Zucker rat skin perfusate, 90 minutes after perfusion, 10 mM Ca^2+.
For assay [7] the target is unchanged. The assay can be described thus: solid phase capture ELISA of Zucker rat skin perfusate, 30 minutes after start of perfusion, 1 mM Ca^2+.
Assay [8] has the same target. The assay can be described thus: solid phase capture ELISA of Zucker rat skin perfusate, 90 minutes after perfusion, 1 mM Ca^2+.

Sequence of wild-type human matrix metalloprotease 1 (hMMP-1), purified and trypsin-activated (P03956 100-469): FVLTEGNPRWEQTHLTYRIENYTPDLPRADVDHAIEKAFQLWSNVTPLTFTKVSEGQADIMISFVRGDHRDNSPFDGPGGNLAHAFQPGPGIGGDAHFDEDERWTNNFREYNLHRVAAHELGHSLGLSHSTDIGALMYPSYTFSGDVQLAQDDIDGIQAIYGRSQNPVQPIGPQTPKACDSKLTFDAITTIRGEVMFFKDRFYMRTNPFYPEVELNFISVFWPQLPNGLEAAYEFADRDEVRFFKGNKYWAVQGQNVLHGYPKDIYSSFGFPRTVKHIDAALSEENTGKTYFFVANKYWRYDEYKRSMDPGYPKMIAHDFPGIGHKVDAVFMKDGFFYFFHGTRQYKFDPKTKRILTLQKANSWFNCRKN

For “MMP-1 mutant GVSK (G159V/S208K), purified and trypsin-activated (from UniProt P03956 100-469) (enzyme)”, the percent of uncomplexed protein (of the starting concentration) is 30% in assay [1]; 50% in assay [2]; 45% in assay [4]; 90% in assay [5]; 13% in assay [6]. This substance came in with an uncomplexed protein as a fraction of the starting concentration (fraction of the starting concentration) in assay [3] of less than 0.1.
Consider “wild-type human matrix metalloprotease 1 (hMMP-1), purified and trypsin-activated (from UniProt P03956 100-469) (enzyme)”, for which the uncomplexed protein as a fraction of the starting concentration (fraction of the starting concentration) in assay [7] was 0.5; in assay [8], 0.33. For the same substance, the percent of uncomplexed protein (of the starting concentration) in assay [4] was determined as 90%.
